The record followed here is patent publication US8119766 (UNIVERSITY OF IOWA RESEARCH FOUNDATION, dated 2012).

Assay [1] deals with full-length α-DG-IgG Fc fusion protein (DGFc5), secreted form from conditioned medium (human). Kind of assay: solid-phase laminin-1 binding assay, nonlinear regression (FIG. 9C).
The target of assay [2] is LARGE-modified DGFc5 (human). The assay is described as above.
Assay [3] has as its target full-length α-DG-IgG Fc fusion protein (DGFc5), secreted form from conditioned medium (human). In words: solid-phase binding of laminin-1, nonlinear regression (FIG. 8C).
In assay [4] the target is T1, laminin-1 (mouse, UniProt P19137 25-3083; P02469 22-1786; P02468 34-1607).
T1 construct: also called mouse EHS laminin-1; biotinylated laminin-1
Kind of assay: laminin overlay.

In assay [5] the target is T1, laminin-1. In words: solid-phase binding of laminin-1, nonlinear regression (FIG. 8C).
Assay [6] has as its target T1, laminin-1. Kind of assay: laminin-1 overlay, with LARGE co-expression.

For orientation: Kd means the equilibrium constant for the complex coming apart. A low value points to a tighter complex. As for “laminin-1 (from UniProt P19137 25-3083; P02469 22-1786; P02468 34-1607) (ligand)”, the Kd worked out at 3.1 nM in assay [1], 1.6 nM in assay [2] and 1.1 nM in assay [3].

B1: DGFc2 prepared from cell lysate (Fc fusion, UniProt Q28685 30-316, looked up)
chain: HWPSEPSEAVRDWENQLEASMHSVLSDLHEALPTVVGIPDGTAVVGRSFRVTIPTDLIGSSGEVIKVSTAGKEVLPSWLHWDPQSHTLEGLPLDTDKGVHYISVSAAQLDANGSHIPQTSSVFSIEVYPEDHSEPQSVRAASPDLGEAAASACAAEEPVTVLTVILDADLTKMTPKQRIDLLHRMQSFSEVELHNMKLVPVVNNRLFDMSAFMAGPGNAKKVVENGALLSWKLGCSLNQNSVPDIRGVEAPAREGTMSAQLGYPVVGWHIANKKPPLPKRIRRQIHA
notes: domain: N-terminal domain; About 65 kDa; also called DGFc2 (cell lysate); not shown: IgG Fc portion
In the case of B1, in assay [4], the binding result was “no binding”.

B2: secreted DGFc2 from cells cultured with CMK (Fc fusion, UniProt Q28685 30-316, looked up)
chain: B1 chain
notes: domain: N-terminal domain; Migrated at the same size (~65 kDa) as DGFc2 from cell lysate; also called DGFc2 (CMK-treated, secreted); not shown: IgG Fc portion
For the molecule B2, in assay [4], the binding result was “no binding”.

B3: native α-DG (receptor, rabbit, UniProt Q28685 30-653, looked up)
chain: HWPSEPSEAVRDWENQLEASMHSVLSDLHEALPTVVGIPDGTAVVGRSFRVTIPTDLIGSSGEVIKVSTAGKEVLPSWLHWDPQSHTLEGLPLDTDKGVHYISVSAAQLDANGSHIPQTSSVFSIEVYPEDHSEPQSVRAASPDLGEAAASACAAEEPVTVLTVILDADLTKMTPKQRIDLLHRMQSFSEVELHNMKLVPVVNNRLFDMSAFMAGPGNAKKVVENGALLSWKLGCSLNQNSVPDIRGVEAPAREGTMSAQLGYPVVGWHIANKKPPLPKRIRRQIHATPTPVTAIGPPTTAIQEPPSRIVPTPTSPAIAPPTETMAPPVRDPVPGKPTVTTRTRGAIIQTPTLGPIQPTRVSDAGTVVSGQIRATVTIPGYVEPTAVATPPTTTTKKPRVSTPKPATPSTDSSATTTRRPTKKPRTPRPVPRVTTKAPITRLETASPPTRIRTTTSGVPRGGEPNQRPELKNHIDRVDAWVGTYFEVKIPSDTFYDKEDTTTDKLKLTLKLREQQLVGEKSWVQFNSNSQLMYGLPDSSHVGKHEYFMHATDKGGLSAVDAFEIHVHKRPQGDKAPARFKAKFVGDPAPVVNDIHKKIALVKKLAFAFGDRNCSTVTLQNITRG
modifications: native glycosylation; sites not stated
notes: mature; also called native α-dystroglycan purified from rabbit skeletal muscle
For the molecule B3, the affinity in assay [5], expressed as Kd, was 0.4 nM.

B4: DGFc6, secreted form (Fc fusion, UniProt Q28685 317-653, looked up)
chain: TPTPVTAIGPPTTAIQEPPSRIVPTPTSPAIAPPTETMAPPVRDPVPGKPTVTTRTRGAIIQTPTLGPIQPTRVSDAGTVVSGQIRATVTIPGYVEPTAVATPPTTTTKKPRVSTPKPATPSTDSSATTTRRPTKKPRTPRPVPRVTTKAPITRLETASPPTRIRTTTSGVPRGGEPNQRPELKNHIDRVDAWVGTYFEVKIPSDTFYDKEDTTTDKLKLTLKLREQQLVGEKSWVQFNSNSQLMYGLPDSSHVGKHEYFMHATDKGGLSAVDAFEIHVHKRPQGDKAPARFKAKFVGDPAPVVNDIHKKIALVKKLAFAFGDRNCSTVTLQNITRG
notes: domain: mucin-like domain and C-terminal domain; Tested with and without LARGE co-expression; not shown: IgG Fc portion
As for B4, in assay [6], the binding result is on record as “no binding”.
